Read-outs that look alike come from different tables or passages of the source.

One data set has as its target T1, RIG-I helicase-RD (human, UniProt O95786 232-925).
T1 sequence: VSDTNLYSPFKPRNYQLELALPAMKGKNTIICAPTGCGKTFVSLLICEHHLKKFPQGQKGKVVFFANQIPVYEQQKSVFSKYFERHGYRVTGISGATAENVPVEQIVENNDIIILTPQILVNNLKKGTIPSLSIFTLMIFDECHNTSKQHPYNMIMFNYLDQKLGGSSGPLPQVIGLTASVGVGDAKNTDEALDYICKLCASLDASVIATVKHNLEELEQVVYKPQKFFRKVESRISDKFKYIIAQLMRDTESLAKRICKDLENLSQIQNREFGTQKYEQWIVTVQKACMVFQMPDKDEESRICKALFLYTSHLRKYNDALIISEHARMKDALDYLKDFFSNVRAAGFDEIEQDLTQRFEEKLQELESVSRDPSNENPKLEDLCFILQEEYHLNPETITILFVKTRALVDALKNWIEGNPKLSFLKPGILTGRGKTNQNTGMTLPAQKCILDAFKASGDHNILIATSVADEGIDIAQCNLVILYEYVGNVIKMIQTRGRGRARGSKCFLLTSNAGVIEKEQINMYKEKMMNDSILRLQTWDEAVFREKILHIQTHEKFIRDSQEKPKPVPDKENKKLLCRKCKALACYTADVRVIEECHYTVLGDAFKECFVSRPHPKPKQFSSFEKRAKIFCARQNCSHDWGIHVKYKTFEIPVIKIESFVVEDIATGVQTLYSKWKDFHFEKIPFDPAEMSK
The experiment in a line: X-ray crystallography.

For data set [1], the target named is T2, RIG-I helicase domain (human, UniProt O95786 232-794).
T2 sequence: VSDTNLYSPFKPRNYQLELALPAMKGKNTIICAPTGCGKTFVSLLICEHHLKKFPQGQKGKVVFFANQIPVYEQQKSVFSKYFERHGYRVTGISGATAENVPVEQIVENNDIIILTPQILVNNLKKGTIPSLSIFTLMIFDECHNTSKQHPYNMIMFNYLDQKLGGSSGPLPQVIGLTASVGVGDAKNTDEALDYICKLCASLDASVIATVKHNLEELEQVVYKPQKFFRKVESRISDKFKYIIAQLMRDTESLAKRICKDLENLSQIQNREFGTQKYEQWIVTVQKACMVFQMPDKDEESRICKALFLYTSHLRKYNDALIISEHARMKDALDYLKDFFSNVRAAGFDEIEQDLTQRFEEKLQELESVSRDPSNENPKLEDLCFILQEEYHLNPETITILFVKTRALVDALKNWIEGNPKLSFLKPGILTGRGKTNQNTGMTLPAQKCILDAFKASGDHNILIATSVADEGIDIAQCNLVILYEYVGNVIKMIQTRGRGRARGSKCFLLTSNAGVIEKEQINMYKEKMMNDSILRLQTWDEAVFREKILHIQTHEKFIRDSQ
The experiment in a line: fluorescence anisotropy. In general terms: Polarisation of emitted light reports the rotation of a fluorescent probe.

Another data set addresses T3, RIG-I full-length (human, UniProt O95786 1-925).
T3 sequence: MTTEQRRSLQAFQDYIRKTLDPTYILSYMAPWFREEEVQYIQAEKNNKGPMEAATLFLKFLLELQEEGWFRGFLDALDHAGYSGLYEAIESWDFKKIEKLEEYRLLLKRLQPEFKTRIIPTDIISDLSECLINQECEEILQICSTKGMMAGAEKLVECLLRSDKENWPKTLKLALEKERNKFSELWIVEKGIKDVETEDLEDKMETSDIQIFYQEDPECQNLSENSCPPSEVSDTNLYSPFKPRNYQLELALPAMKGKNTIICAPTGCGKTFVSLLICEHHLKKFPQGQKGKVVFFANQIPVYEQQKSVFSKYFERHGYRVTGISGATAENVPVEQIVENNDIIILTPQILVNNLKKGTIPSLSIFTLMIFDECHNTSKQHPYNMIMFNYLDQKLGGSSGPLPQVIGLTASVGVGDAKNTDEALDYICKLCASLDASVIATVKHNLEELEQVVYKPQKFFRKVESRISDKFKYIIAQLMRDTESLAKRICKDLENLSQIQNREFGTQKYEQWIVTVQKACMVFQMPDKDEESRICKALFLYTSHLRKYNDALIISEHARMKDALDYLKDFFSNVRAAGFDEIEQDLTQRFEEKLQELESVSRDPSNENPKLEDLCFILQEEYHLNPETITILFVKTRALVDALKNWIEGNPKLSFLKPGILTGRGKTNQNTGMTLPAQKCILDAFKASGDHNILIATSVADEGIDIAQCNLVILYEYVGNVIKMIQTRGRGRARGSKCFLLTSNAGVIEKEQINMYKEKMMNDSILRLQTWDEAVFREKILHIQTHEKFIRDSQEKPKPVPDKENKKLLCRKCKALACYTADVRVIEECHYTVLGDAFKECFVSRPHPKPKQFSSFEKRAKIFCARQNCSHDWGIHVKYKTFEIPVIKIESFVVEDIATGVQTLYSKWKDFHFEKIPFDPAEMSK
In words: fluorescence anisotropy.

Data set [2] has as its target T2, RIG-I helicase domain. In words: fluorescence anisotropy. The source holds these as a separate data set.
The target in data set [3] is T4, RIG-I RD (repressor domain) (human, UniProt O95786 795-925).
T4 sequence: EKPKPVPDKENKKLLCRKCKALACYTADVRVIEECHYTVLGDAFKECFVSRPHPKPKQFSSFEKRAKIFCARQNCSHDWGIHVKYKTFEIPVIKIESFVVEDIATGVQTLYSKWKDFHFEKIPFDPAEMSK
The experiment in a line: fluorescence anisotropy.

B1: 14bp pal dsRNA (dsRNA)
RNA 1: CGACGCUAGCGUCG
RNA 2: CGACGCUAGCGUCG
modifications: 5-iodouridine derivative also crystallized
For B1, the binding result with RIG-I helicase-RD is on record as “binds”.

B2: 14bp dsRNA-F (dsRNA)
RNA 1: GGAGAGAACCGCCU
RNA 2: AGGCGGUUCUCUCC
modifications: 5'-OH
As a reminder, the Kd is the constant that tells how readily two partners part at equilibrium. A lower Kd goes with a tighter complex. With B2, the Kd in the data set with RIG-I helicase domain [1] was determined as 1300 nM; with RIG-I full-length, 1.2 nM; with RIG-I helicase domain [2], 436 ± 121 nM; in data set [3], 2.6 ± 1.2 nM.

Source of the values: article PMC3430514.
